Experimental data from paper PMC7459334, “Akkermansia muciniphila uses human milk oligosaccharides to thrive in the early life conditions in vitro” (Scientific Reports, 2020).

Tests used:
Assay in all cases: purified protein
purified protein [1] = substrate: O=[N+]([O-])c1ccc(O[C@@H]2O[C@H](CO)[C@H](O)[C@H](O)[C@H]2O)cc1; conditions: McIlvaine buffer, pH 5.0, 37 °C
purified protein [2] = substrate: C[C@@H]1O[C@@H](Oc2ccc([N+](=O)[O-])cc2)[C@@H](O)[C@H](O)[C@@H]1O; type: biochemical, Akkermansia muciniphila; conditions: McIlvaine buffer, pH 5.6, 37 °C, text b19 prints 839 ± 46.72
purified protein [3] = substrate: CC(=O)N[C@H]1[C@H](Oc2ccc([N+](=O)[O-])cc2)O[C@H](CO)[C@@H](O)[C@@H]1O; type: biochemical, Akkermansia muciniphila; conditions: McIlvaine buffer
[4] = pH 5.6, 37 °C, text b19 prints 322.37 ± 43.64

B1: Amuc_1686 (Akkermansia muciniphila ATCC BAA-835) (protein)
chain: AAPMPLPESNDGARHVFSTNQENFLMDGKPVKIISGEMHYPRVPRQHWKDRFQRIKAMGMNTVCTYLFWNVHEPEPGKWDFSGNLDFVEFIKEAQKAGLWVIVRPGPYVCAEWEFGGFPGWLLKDEDLKVRSQDPRFLEPAMAYLKKVCSMLEPLQITKGGPIIMAQVENEYGSYGSDKDYVKKHLDVIRKELPGVVPFTSDGPNDWMIKNGTLPGVVPAMNFGGGAKGAFANLEKHKGKTPRINGEFWVGWFDHWGKPKNGGSTEGFNRDLKWMLENNVSPNLFMAHGGTSFGFMNGANWEGAYTPDVTNYDYGAPISENGTLTDRYRTFRQTIQDYYGDTYKLPEPPAQPEMMELPPITFTETAGMFSRLPQPVIRKEPVHMEALGQSLGFILYRTKVNGPVKGELKMNNMQDRAIVYVDGKRQGAADRRYKQDSCDIVIPSGLHTVDIFVENMGRINFGGQIQGERKGIRGPITLDGKKLENFLIYNFPCKGVELIPFSGKKPAGDQPVFHRGYFNVSNPKDTYLDMRDGWKKGVVWVNGRNLGRFWFIGSQQALYCPGEYLKPGKNEIVVLDVDGGSGTVKGVKEAIYEVNRDPAMADVFRVGKPVAPAAGQLVHKGSFAKGADQQEIKFRAPVQARYIAIVSKNAHDNGPHAAIAELNFLDASGNLLPREQWSVVYADSHETTGEAAQAGLVMDNQPTTYWHTKWQGDNPRHPHMIVLDLGKVQKLSGFRYLPRQDRENGRIKDYEVYASPKPFKPAK
- Km (purified protein [1]): 319.40 ± 259.30 µM
- Vmax (purified protein [1]): 29.3 µM/min
- kcat (purified protein [1]): 27.2 s⁻¹
- kcat/Km (purified protein [1]): 70200 M⁻¹ s⁻¹

B2: Amuc_0010 (Akkermansia muciniphila ATCC BAA-835) (protein)
chain: QQSATKIITENGQPALALDEQFAARLRDGGMKQGSPATVPAEFSAAAPGLPLPADANHAAVRETAGERNRRMEWWRDAKFGMFIHYGLYSGLAGEWKGRPGGSEWIQKNVEVDTDTYAAEALPLFKPREGLTEEWAQLARDAGCQYVVLTSKHHEGFGLFDSALTDYDAKSAVNRDIIREYVDSCRKRGLKVGLYHSVIDWHHPSYDNTICPDLCYPAGQAAMLNRKNIPRDHAAYQKYLHAQVRELMTRYAPIDIMWWDYSQGAMEGAKGWKAPELMDMVRSINPGVIMNNRLYAYSGLNKNQAGTLDLRCGDYITPERFIPRRGYPGVDWESCMTVSDKWGYNRYDTNIKSPETIIEKLVECVTKGGNLLLNVNPMADGTIPEKVAATMRGVGRWLNINGEAVYGTRAFMQLDQPATINRQGDIFIFLIPPPDKEPAQPPSEGTMKELTAGAEHARMQPLDATGYENDGGTAVTLPAGYSKALLLGDNTALPVVNGTVLFKAHEHSKTPCSVIKLSK
- Km (purified protein [2]): 841.23 ± 46.72 µM
- Vmax (purified protein [2]): 19.8 µM/min
- kcat (purified protein [2]): 378 s⁻¹
- kcat/Km (purified protein [2]): 451000 M⁻¹ s⁻¹

B3: Amuc_0771 (Akkermansia muciniphila ATCC BAA-835) (protein)
chain: GPEAVQNVQKPALSGGPPVVFGFGGEGNQEFMLNGKPFQIRGAEMHPQRIPREYWRHRIRTAKAMGLNTIAFYVFWNDHEQPDGSFDFKTGNRDLEGFLKLCQEEGMWVLFRPGPYACGEWDLGGLPHYLLKDPKAKLRTTEDAKFMKAQTRYLEAVARVAEPFLAKNGGPILMTQLENEYGSYQRKDRKYMEWLKAFWSRKGFGPFYTSDGAGEHFLKGVVLPGVAVGLDPGLNDGHWAVANKCNPGVPVFSSETYPGWLRHWGEGNWAPTPGVVNHVRWFMDKGRSFSLFVFHGGTNFGFSAGANNGGPGKYQPDLTSYDYGSPVDEQGRMNEYYAQMREIILKKLPPEAAVPEPPADIPAMEIPEFTPAVHAGLWENLPKPFRSKFPQPPYFEQWNQNQGIAVYRTAVPSGPPETLEFTNVNDYAQVYLDGELVGTLDRRLGQKSVKLPERRKPGTLEVLVEAMGHINFHISMESDRKGIYGPVKLGTRELKNWTVRALPLKADSIVRAPKGKGPSQKREGAHFRAVVNIEEPQDTFLDMSRYVKGYVWVNGINVGRYWNVGPQLRLYVPAPFLKKGENVIDILDLHEKEPKPVRGMKERNKEPGKINTKNLDNQW
- Km (purified protein [1]): 2,599 ± 565.27 μM
- Vmax (purified protein [1]): 60.1 µM/min
- kcat (purified protein [1]): 13.8 s⁻¹
- kcat/Km (purified protein [1]): 5670 M⁻¹ s⁻¹

B4: Amuc_2136 (Akkermansia muciniphila ATCC BAA-835) (protein)
chain: QDAKQIADSLSIPPVKAGAKQLPMPSVSGAQIKLLGADYEQLVNSKGKIAPVISDTPVNVSFKVTKDGKEAVSKDYEIMLQAPQAAQGNPKPRIIPEILQWKGGQGEYKLGNTVTIACPDKELGKLFAADMEDVLGKKVKLVAPGAKADISLSLLKGGNLGREGYRLQIARDGVRLGAAAPTGLFWGTRTLLQMLRQTPGSVPCGTAVDFPRYQLRGFMLDVARTPYPLSYLKDVIRTMAWYKMNDLHLVINNNYIFHEHYVDNGHDPFKESYAAFRLESKMKGKDGTPLTARDLFYTKKEFADLVSYARKYGVNIVPEFDTPGHALSFTRLRPDLIYKGPMNHEKRRCEMLDAANPETIDLVSKVFDEYMLKDPKLGRPVFADCGVVHVGADEFYGDKEDYRHFANAVLTHALKRGYTPRIWGSLSAKPGKTPVVSKGVQMNLWSTGWMKAWEAVNQGYDVINTNDGALYIVPFAGYYRMDRNHKGLYNNWIPNRIGNETLPSGHPQLLGGTFAVWNDETDIMHTGYAPYDIWGIISGSMDVLSQKLWGTAKAPDTFEQHRELVSSIGNAPRTNPLHKWKDSQPLTVKPSSLPQKLDKPALGPNYRLTMELELTAAPEGKEQVLLAAPEGELLAVMKDGTVGFRRDDSLEFSFGAKLPVGKKVKVEIVGEPEKTSLLLDGEPAGTAVLKNFSDKSKDFSDKFKHRPKVHRSTFILPLKELGSSFQGKVFHMNVQPL
- Km (purified protein [3]; pH 5.0, 37 °C): 714.55 ± 47.96 µM
- Vmax (purified protein [3]; pH 5.0, 37 °C): 109 µM/min
- kcat (purified protein [3]; pH 5.0, 37 °C): 1490 s⁻¹
- kcat/Km (purified protein [3]; pH 5.0, 37 °C): 2.08e+06 M⁻¹ s⁻¹

B5: Amuc_0369 (Akkermansia muciniphila ATCC BAA-835) (protein)
chain: QEQIIPKPAEITLFTGSPARLTPDSLIITETQDKAFLDQAGQLQQMLSAGTGLPLPLKPAGQASKKAACIVIKKDPALAARGEEAYSIQSSPSGIILSAADARGIFYAGQSLVQMMPSVFHDRTGDKSAVRWNISETPFRITDYPRFSWRALMIDEARHFFGEKTIKQIIDQMALLKMNILHWHLTDDTGWRIEIKKYPRLTSIGSKRRESEIGTWNSGKSDGTPHEGFYTQEQIRDIVQYAARRNITIVPEIEMPGHASAAAVAYPFLSLKTPGEVPTTFIVNTAFDPTSEKTYAFLSDVLDEVTAIFPGRIIHIGGDEVRYDKQWKGVPEIEEFMKKNGMKSYADVQMHFTNRMSGIIAQKGRRMMGWNEIYGHDVNGDGGGKAGAKLDTNAVIQFWKGNTSLAKNAIRDGHDVINSLHTSTYLDYSYGSIPLQKAYGFEPVFPGLEKQYHSRVKGLGAQVWTEWISTPERLHYQAFPRACAFAEVGWTPAGKKDFPDFKKRLKAYSERMDLMGIKFARNVISQIDKSDFFNTPRIGTWTPATLTREEHSFDVTKLVKASGKHTVTLLYDKGAHAIEIESVALYENSREVSRDAHAGRSGAHKENIQYILNAPAPRQGATYTVKANFKGAGGRDSHGTVYFETP
- Km (purified protein [3]; [4]): 323.38 ± 43.64 µM
- Vmax (purified protein [3]; [4]): 55.6 µM/min
- kcat (purified protein [3]; [4]): 670 s⁻¹
- kcat/Km (purified protein [3]; [4]): 2.07e+06 M⁻¹ s⁻¹
